The source of these data is patent US20210301293, “DNA APTAMERS, METHOD FOR INHIBITING HUMAN GALECTIN-1 AND METHOD OF TREATING A MAMMAL IN NEED THEREOF” (published 2021).

Data set [1] deals with T1, human galectin-1 (hGal1), native (Homo sapiens, UniProt P09382 SEQ:1-134). In words: thermal shift assay; results stated similar to SEQ ID NO 4 and 9. The settings on record: tags: expressed in E. coli M-15, lactosyl-Sepharose purified; chain copies: 2. The procedure:
(§1) Thermofluor experiments were performed on an Mx3005 RT-PCR (Agilent Technologies) using the SYPRO® Orange dye (492/610 nm) (Invitrogen) as fluorescent probe. The purified (native and alkylated) protein samples were incubated for 30 min with increasing concentration of the molecules of interest, centrifuged, and submitted to the thermal denaturation assay, totalizing four distinct experiments. In a 96-well plate (Agilent Technologies) 20 μl of the reaction containing 5 μM of each protein in buffer PBS 1× and 5× SYPRO® Orange were heated from 25° C. to 95° C. at a rate of 1° C./min. The experimental result was processed as in the protocol previously described and the melting temperature was obtained using GraphPad Prism software (www.graphpad.com).

Data set [2] deals with T1, human galectin-1 (hGal1), native. In words: thermal shift assay; among the four with greatest Tm variation. The settings on record: tags: expressed in E. coli M-15, lactosyl-Sepharose purified; chain copies: 2. The procedure: as §1

T1 sequence (P09382 2-135): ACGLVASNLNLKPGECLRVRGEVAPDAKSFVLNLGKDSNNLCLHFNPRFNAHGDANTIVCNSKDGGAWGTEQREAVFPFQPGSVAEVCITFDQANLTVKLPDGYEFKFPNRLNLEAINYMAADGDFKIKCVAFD

B1: SEQ ID NO. 12 (ssDNA)
DNA: AGCTGACACAGCAGGTTGGTGCGCCCAATACAGGCGCAGTATCTGTCCGTGGGCCGGGTAAAAGTTACGGACCGAGTCGAGCAATCTCGAAAT
On to B1, for which, in data set [1], the binding result is “binds”.

B2: SEQ ID NO. 9 (ssDNA)
DNA: AGCTGACACAGCAGGTTGGTGCCCAAAAGAGCCAATCCACGACGACACCCCAAAAACCATATCACGAATACCCGAGTCGAGCAATCTCGAAAT
For the molecule B2, the binding result in data set [2] is “binds”.

B3: SEQ ID NO. 10 (ssDNA)
DNA: AGCTGACACAGCAGGTTGGTGCCAACAAGAAAAGAAACCGTTACAGAAGACACTACAGAATAAGTGAAAAGCCGAGTCGAGCAATCTCGAAAT
As to B3, the binding result in data set [1] is “binds”.
